Laboratory results as given in article PMC4666396, “Mammalian splicing factor SF1 interacts with SURP domains of U2 snRNP-associated proteins” (Nucleic Acids Research, 2015).

Experiments:
Experiment in all cases: pull-down; GST fusion proteins on glutathione-agarose; His6- or His6-MBP-tagged SF1 proteins in two-fold molar excess; NETN (20 mM Tris-HCl pH 8.0, 50 mM NaCl, 0.5% NP-40, 0.5 mM EDTA), 45 min 4°C; with or without RNase A; western blot with anti-His6
Details in all cases: both partners purified
His6-SF1-C320 = target: T1, His6-SF1-C320 (human, UniProt Q15637 1-320)
T1 construct: human SF1, C-terminal truncation to amino acid 320; it follows the naming of the other truncations; also called deletion to amino acid 320; source: E. coli XL1-Blue, purified (TALON resin, lysis in 8 M urea, dialyzed); not shown: His6, N-terminal, kept
T1 sequence (looked up): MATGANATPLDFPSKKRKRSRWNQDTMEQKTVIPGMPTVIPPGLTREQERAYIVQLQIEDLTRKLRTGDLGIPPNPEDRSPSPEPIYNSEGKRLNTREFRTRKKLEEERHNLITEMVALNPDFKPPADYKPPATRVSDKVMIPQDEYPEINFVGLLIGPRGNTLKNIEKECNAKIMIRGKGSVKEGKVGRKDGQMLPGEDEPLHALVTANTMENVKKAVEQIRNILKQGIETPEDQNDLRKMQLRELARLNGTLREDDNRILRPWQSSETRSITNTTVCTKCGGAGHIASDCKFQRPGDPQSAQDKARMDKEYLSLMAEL

His6-SF1-C327 = target: T2, His6-SF1-C327 (human, UniProt Q15637 1-327)
T2 construct: human SF1, C-terminal truncation to residue 327; SF1-C370 is 1–370; source: E. coli XL1-Blue, purified (TALON resin, lysis in 8 M urea, dialyzed); not shown: His6, N-terminal, kept
T2 sequence (looked up): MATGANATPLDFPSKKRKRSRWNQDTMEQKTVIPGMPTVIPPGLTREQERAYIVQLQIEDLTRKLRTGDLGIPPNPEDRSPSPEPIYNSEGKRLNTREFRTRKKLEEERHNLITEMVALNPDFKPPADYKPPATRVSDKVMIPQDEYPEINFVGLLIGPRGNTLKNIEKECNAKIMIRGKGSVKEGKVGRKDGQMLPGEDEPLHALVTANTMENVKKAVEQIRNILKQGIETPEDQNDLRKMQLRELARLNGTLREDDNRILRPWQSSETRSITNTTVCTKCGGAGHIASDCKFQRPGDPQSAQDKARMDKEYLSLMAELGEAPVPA

His6-SF1-C302 = target: T3, His6-SF1-C302 (human, UniProt Q15637 1-302)
T3 construct: source: E. coli XL1-Blue, purified (TALON resin, lysis in 8 M urea, dialyzed); not shown: His6, N-terminal, kept
T3 sequence (looked up): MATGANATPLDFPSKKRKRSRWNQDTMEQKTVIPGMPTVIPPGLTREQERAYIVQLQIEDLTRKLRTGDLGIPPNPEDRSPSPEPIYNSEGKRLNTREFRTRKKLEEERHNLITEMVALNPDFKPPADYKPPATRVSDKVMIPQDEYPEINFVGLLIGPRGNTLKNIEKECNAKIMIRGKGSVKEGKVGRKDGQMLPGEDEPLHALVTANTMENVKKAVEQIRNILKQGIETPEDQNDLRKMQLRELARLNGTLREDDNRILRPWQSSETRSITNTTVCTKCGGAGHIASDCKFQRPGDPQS

His6-SF1-C370 = target: T4, His6-SF1-C370 (human, UniProt Q15637 1-370)
T4 construct: human SF1, amino acids 1–370, the region common to all SF1 isoforms; in pTrcHisA; source: E. coli XL1-Blue, purified (TALON resin, lysis in 8 M urea, dialyzed); not shown: His6, N-terminal, kept
T4 sequence (looked up): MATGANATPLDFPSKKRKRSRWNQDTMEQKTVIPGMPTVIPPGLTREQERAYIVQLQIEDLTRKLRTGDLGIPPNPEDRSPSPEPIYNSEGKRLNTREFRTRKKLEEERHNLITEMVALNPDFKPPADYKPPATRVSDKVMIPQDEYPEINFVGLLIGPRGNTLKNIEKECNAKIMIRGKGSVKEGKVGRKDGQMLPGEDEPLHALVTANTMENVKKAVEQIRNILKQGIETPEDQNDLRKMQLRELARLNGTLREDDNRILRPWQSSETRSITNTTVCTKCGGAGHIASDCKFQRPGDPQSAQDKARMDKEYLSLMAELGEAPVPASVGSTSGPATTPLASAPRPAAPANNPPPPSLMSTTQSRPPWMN

His6-SF1-C315 = target: T5, His6-SF1-C315 (human, UniProt Q15637 1-315)
T5 construct: source: E. coli XL1-Blue, purified (TALON resin, lysis in 8 M urea, dialyzed); not shown: His6, N-terminal, kept
T5 sequence (looked up): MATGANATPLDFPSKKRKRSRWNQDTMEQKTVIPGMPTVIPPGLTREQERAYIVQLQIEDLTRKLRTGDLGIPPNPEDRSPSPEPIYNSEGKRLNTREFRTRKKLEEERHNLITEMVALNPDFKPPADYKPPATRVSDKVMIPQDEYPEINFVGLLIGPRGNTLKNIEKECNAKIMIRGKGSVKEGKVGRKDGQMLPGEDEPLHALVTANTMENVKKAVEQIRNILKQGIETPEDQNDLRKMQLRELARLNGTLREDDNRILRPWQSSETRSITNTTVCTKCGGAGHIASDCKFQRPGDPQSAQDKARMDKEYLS

[1] = target: T6, His6-MBP-SF1-C370 Δ306–326 (human, UniProt Q15637 1-370, Δ306–326, replaced by one KpnI site encoding Gly and Thr)
T6 construct: in pETMBP-1a; source: E. coli BL21, purified (TALON resin, lysis in 8 M urea, dialyzed); not shown: His6, N-terminal, kept; MBP, N-terminal, kept
T6 sequence (looked up): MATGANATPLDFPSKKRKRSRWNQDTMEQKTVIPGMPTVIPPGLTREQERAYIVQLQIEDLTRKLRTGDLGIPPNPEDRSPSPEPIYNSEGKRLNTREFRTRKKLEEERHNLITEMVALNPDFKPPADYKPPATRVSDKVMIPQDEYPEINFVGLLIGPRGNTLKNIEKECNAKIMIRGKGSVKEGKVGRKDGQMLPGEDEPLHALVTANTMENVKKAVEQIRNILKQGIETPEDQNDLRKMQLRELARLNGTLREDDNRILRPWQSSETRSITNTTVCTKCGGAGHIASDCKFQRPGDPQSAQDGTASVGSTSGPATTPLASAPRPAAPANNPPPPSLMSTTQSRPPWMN

Measured: binding result

B1: GST-U2AF65-UHM (domain or fragment, UniProt P26368 367-475, looked up)
chain: QVQMGGHPTEVLCLMNMVLPEELLDDEEYEEIVEDVRDECSKYGLVKSIEIPRPVDGVEVPGCGKIFVEFTSVFDCQKAMQGLTGRKFANRVVVTKYCDPDSYHRRDFW
notes: U2AF homology motif (UHM) of U2AF65, amino acids 367–475; also called U2AF homology motif of U2AF65; source: E. coli XL1-Blue, purified (glutathione agarose)
binds: all assays above

B2: GST-SF3a120-SURP1 (domain or fragment, UniProt Q15459 38-113, looked up)
chain: PVVGIIYPPPEVRNIVDKTASFVARNGPEFEARIRQNEINNPKFNFLNPNDPYHAYYRHKVSEFKEGKAQEPSAAI
notes: SURP1 of SF3a120, amino acids 38–113, in pDEST15; also called SURP1 of SF3a120; source: E. coli BL21, purified (glutathione agarose)
binds: His6-SF1-C327 | His6-SF1-C370

B3: GST-CHERP-SURP (domain or fragment, UniProt Q8IWX8 1-75, looked up)
chain: MEMPLPPDDQELRNVIDKLAQFVARNGPEFEKMTMEKQKDNPKFSFLFGGEFYSYYKCKLALEQQQLICKQQTPE
notes: single SURP domain of CHERP, amino acids 1–75, in pDEST15; also called single SURP domain of CHERP; source: E. coli BL21, purified (glutathione agarose)
binds: His6-SF1-C327 | His6-SF1-C370
